Reference: the RNAGym collection of RNA variant scans (doi:10.7554/elife.80360)

B1: HDV Ribozyme (parent)
chain: GGCCGGCAUGGUCCCAGCCUCCUCGCUGGCGCCGGCUGGGCAACAUUCCGAGGGGACCGUCCCCUCGGUAAUGGCGAAUGGGACCCA

Variants of: B1
Experiment: self-cleavage, relative activity (ratio to wild type); higher = more cleavage; co-transcriptional

Q: Which self-cleavage does the source give for GGCCGGCAUGGUGCCAGCCUCCUCGCUGGCGCCGGCUGGGCAACGUUCCGAGGGGACCGUCCCCUCGGUAAUGGCGAAUGGGACCCA [C13G A45G] here?
A: 0.138

Q: With GGCCGGCAUGGUCCCAGCCUCCUCGCUGGCGCCGGCUGGGCAACAUUCCGAGGGUACCGACCCCUCGGUAAUGGCGAAUGGGACCCA [G55U U60A] as the variant, how does the self-cleavage read?
A: 0.886

Q: With GGCCGGCAUGGUCCCAGCCUCCUCGCUGGCGCCGGCUGGGCAACAUUCCGAGGGGACCGUCCCCUCGAUAAUGGCGAAUGGCACCCA [G68A G82C] as the variant, how does the self-cleavage read?
A: 0.153

Q: For GGCCGGCAUGGUCCCAGCCUCCUCGCUGCCGCCGGCUGGGCAACAUUCCGAGGGGACCGUUCCCUCGGUAAUGGCGAAUGGGACCCA [G29C C61U], which self-cleavage is on record?
A: 0.119

Q: With GGCCGGCAUGUUCCCAGCCUCCUCGCUGGCGCCGGCUGGGCAACAUUCCGAGGGGACCGUCCCCUCGGUAAUGCCGAAUGGGACCCA [G11U G74C] as the variant, how does the self-cleavage read?
A: 0.0845

Q: With GGCCGGCAUGGUCCCAGCCUCCUCGCUGGCGCCGGCUGGGCAACAUUCCGAGGGGACCGUCCCCUCGGUAAUGGCGAAUGCGACCCU [G81C A87U] as the variant, how does the self-cleavage read?
A: 0.265

Q: Which self-cleavage does the source give for GACCGGCAUGGUCCCAGCCUCCUCGCUGGCGCCGGCUCGGCAACAUUCCGAGGGGACCGUCCCCUCGGUAAUGGCGAAUGGGACCCA [G2A G38C] here?
A: 0.07

Q: Which self-cleavage does the source give for GGCCGGCAUGGUCCCAGCCUCCUCGCUGGCCCCGGCUGGGCAACAUUCCGAGGGGACCGUCCCCUCGGUAAUGGCGAAUGGGACCUA [G31C C86U] here?
A: 0.295

Q: Which self-cleavage does the source give for GGCCGGCAUGGUCCCAGCGUCCUCGCUGGCGCCGGCUGGGCAACAUUCCGAGGGGACCGUCCCCCCGGUAAUGGCGAAUGGGACCCA [C19G U65C] here?
A: 0

Q: With GGCCGGCAUGGUCCCAGCCUCCUCGCUGGCGCCGCCUGGGCAGCAUUCCGAGGGGACCGUCCCCUCGGUAAUGGCGAAUGGGACCCA [G35C A43G] as the variant, how does the self-cleavage read?
A: 0.111

Q: With GGCCGGCAUGGUCACAGCCUCCUCGCUGGCGCCGGCUGGGCAACAUUCCGAGGGGACCGUCACCUCGGUAAUGGCGAAUGGGACCCA [C14A C62A] as the variant, how does the self-cleavage read?
A: 1.06

Q: With GGCCGGCAUGGUCCCAGCCUCCUCGCUGGCGCAGGCUGGGCAACACUCCGAGGGGACCGUCCCCUCGGUAAUGGCGAAUGGGACCCA [C33A U46C] as the variant, how does the self-cleavage read?
A: 0.0875

Q: With GGCCGGCAUGGUACCAGCCUCCUCGCUGGCGCCGGCUAGGCAACAUUCCGAGGGGACCGUCCCCUCGGUAAUGGCGAAUGGGACCCA [C13A G38A] as the variant, how does the self-cleavage read?
A: 0.0631

Q: For GGCCGGCAUGGUCCCAGUCUCCUCGCUGGCUCCGGCUGGGCAACAUUCCGAGGGGACCGUCCCCUCGGUAAUGGCGAAUGGGACCCA [C18U G31U], which self-cleavage is on record?
A: 0.119

Q: Which self-cleavage does the source give for GGCCGGCAUGGUCCCAGCCUCCUCGCUGGCGCCGGCUGGGCAACACUCCGAGGGGACCGUCCCCUCGGUUAUGGCGAAUGGGACCCA [U46C A70U] here?
A: 0.957

Q: For GGCCGGCAUGGUCCCAGCCUCCUCACUGGCGCCGGCUGGGCAACAUUCCGAGUGGACCGUCCCCUCGGUAAUGGCGAAUGGGACCCA [G25A G53U], which self-cleavage is on record?
A: 0.179

Q: For GGCCGGCGUGGUCCCAGCCUCCUCGCUGGCGCCGGCUGGGCAACAUUCCGAGGGGACCGUCCCCUCGGCAAUGGCGAAUGGGACCCA [A8G U69C], which self-cleavage is on record?
A: 1.16

Q: For GGCCGGCAUGGUCCCAGCCUCCCCGCUGACGCCGGCUGGGCAACAUUCCGAGGGGACCGUCCCCUCGGUAAUGGCGAAUGGGACCCA [U23C G29A], which self-cleavage is on record?
A: 0.0665

Q: With GGCCGGCAUGGUCCCAGCCUCCUCGCUGGCGCCGGCUGGGCAACGUUCCGAGGGGACCGUCCCCUCGGUAUUGGCGAAUGGGACCCA [A45G A71U] as the variant, how does the self-cleavage read?
A: 0.997

Q: For GGCCGGCUUGGUCCCAGCCUCCUCGCUGGCGCCGGCUGGGCAACAUUCCGAGGGGACCGUCCCCUCGGUAAUGGCGAAUGGCACCCA [A8U G82C], which self-cleavage is on record?
A: 0.0923

Q: Which self-cleavage does the source give for GGCCGGCAUGGUCCCAGCCUCCUCGCUGGCGCCGGAUGGGCAACAUUCCGAGGGGACCGUCCCCUCGGCAAUGGCGAAUGGGACCCA [C36A U69C] here?
A: 0.0426

Q: Which self-cleavage does the source give for GGCCGGCAUGGUCCCAGCCUCCUCGCUGGCGCCGGCUGGGCAACAUUCCGUGGGGACCGUCCCCUCGGUAAUGGCGAAUGGGACCCG [A51U A87G] here?
A: 0.965

Q: With GGCCAGCAUGGUCCCAGCCUCCUCGCUGGCGCCGGCUGGGAAACAUUCCGAGGGGACCGUCCCCUCGGUAAUGGCGAAUGGGACCCA [G5A C41A] as the variant, how does the self-cleavage read?
A: 0.0615

Q: Which self-cleavage does the source give for GGCCGGCAUGGUCCCAGCCUCCUCGCUGGCGCCGGCAGGUCAACAUUCCGAGGGGACCGUCCCCUCGGUAAUGGCGAAUGGGACCCA [U37A G40U] here?
A: 0.157

Q: With GACCGGCAUGGUCCCAGCCUCCUCGCUGGCGCCGGCUGGGCAACUUUCCGAGGGGACCGUCCCCUCGGUAAUGGCGAAUGGGACCCA [G2A A45U] as the variant, how does the self-cleavage read?
A: 0.111

Q: Which self-cleavage does the source give for GGCCGGCAUGGUCCCAGCCUCCUCGCUGGCGCCGGCUGGGCAACAUUCCGAGGGGACCGUCACCUCGGUAAUGGCGACUGGGACCCA [C62A A78C] here?
A: 0.101

Q: For GGCCGGCAUGGUCCCAGCCUCAUCGCUGGCGCCGGCUGGGCAACAUUCCGAGGGGACCUUCCCCUCGGUAAUGGCGAAUGGGACCCA [C22A G59U], which self-cleavage is on record?
A: 0.377

Q: Which self-cleavage does the source give for GGCCGGCAUGGUCCCAGCCUCCUCGCUGGCGCCGGCUGGGCAACAUUCCGAGGGGACCGUGCCCUCGGUAAUGGCGGAUGGGACCCA [C61G A77G] here?
A: 0.831

Q: Which self-cleavage does the source give for GGCCGGCAUGCUCCCAGCCUCCUCGCUGGCGCCGGCUGGGCAACAUUCCGAGGGGUCCGUCCCCUCGGUAAUGGCGAAUGGGACCCA [G11C A56U] here?
A: 0.111

Q: With GGCCGGCAUGGUCCCAGCCUCCUCGCUGGCGCCGGCUGGGCAACAUUCCGAGGGGACCGUCCCCUCGGCAAUGGCCAAUGGGACCCA [U69C G76C] as the variant, how does the self-cleavage read?
A: 1.11

Q: With GGCCGGCAUGGUCCGAGCCUCCUCGCUGGUGCCGGCUGGGCAACAUUCCGAGGGGACCGUCCCCUCGGUAAUGGCGAAUGGGACCCA [C15G C30U] as the variant, how does the self-cleavage read?
A: 0.145

Q: For GGCCGGAAUGGUCCCAGCCUCCUCGCUGGCGCCGGCUGGGCAACAUUCCGAGGGGACCGUCCGCUCGGUAAUGGCGAAUGGGACCCA [C7A C63G], which self-cleavage is on record?
A: 0.35
